Columns and labels:
[1] = biological target: T1, synthetic peptide Ac-SPLAQA-VRSSSR-NH2 (SEQ ID NO: 17) with the P′1 valine substituted by alanine
T1 chain: SPLAQAARSSSR

[2] = biological target: T2, synthetic peptide Ac-SPLAQA-VRSSSR-NH2 (SEQ ID NO: 17) with the P′1 valine substituted by glycine
T2 chain: SPLAQAGRSSSR

[3] = biological target: T3, synthetic peptide Ac-SPLAQA-VRSSSR-NH2 (SEQ ID NO: 17) with the P′1 valine substituted by serine
T3 chain: SPLAQASRSSSR

B1: tumor necrosis factor-alpha converting enzyme (TACE) catalytic domain (protein)
chain: RADPDPMKNTCKLLVVADHRFYRYMGRGEESTTTNYLIELIDRVDDIYRNTAWDNAGFKGYGIQIEQIRILKSPQEVKPGEKHYNMAKSYPNEEKDAWDVKMLLEQFSFDIAEEASKVCLAHLFTYQDFDMGTLGLAYVGSPRANSHGGVCPKAYYSPVGKKNIYLNSGLTSTKNYGKTILTKEADLVTTHELGHNFGAEHDPDGLAECAPNEDQGGKYVMYPIAVSGDHENNKMFSQCSKQSIYKTIESKAQECFQERSNKVGSHHHHHH
- catalytic activity of TACE (product formation quantified at 214 nm after HPLC separation; 100 nM TACE, 100 micromolar substrate) [1]: decreased activity of TACE to non-detectable levels
- catalytic activity of TACE (product formation quantified at 214 nm after HPLC separation; 100 nM TACE, 100 micromolar substrate) [2]: decreased activity of TACE to non-detectable levels
- catalytic activity of TACE (product formation quantified at 214 nm after HPLC separation; 100 nM TACE, 100 micromolar substrate) [3]: decreased activity of TACE to non-detectable levels
